From publication doi:10.1101/2024.11.22.624932

Assays:
[1] = target: synthetic nanobody (sybody) Sb44; assay: SEC
Sb44 V100C [2] = assay: SEC
Sb44 V100C [3] = assay: SDS-PAGE under non-reducing and reducing conditions

stoichiometry N [1]	stoichiometry N (Sb44 V100C [2])	stoichiometry N (Sb44 V100C [3])	Binder
2	–	–	synthetic nanobody (sybody) Sb44 (VHH) VHH: QVQLVESGGGLVQAGGSLRLSCAASGFPVGRASMWWYRQAPGKEREWVAAISSYGWVTAYADSVKGRFTISRDNAKNTVYLQMNSLKPEDTAVYYCEVSVGTGYRGQGTQVTVSA
–	2	2	Sb44 V100C (VHH) VHH: QVQLVESGGGLVQAGGSLRLSCAASGFPVGRASMWWYRQAPGKEREWVAAISSYGWVTAYADSVKGRFTISRDNAKNTVYLQMNSLKPEDTAVYYCEVSCGTGYRGQGTQVTVSA
